system: K4 kissing-loop RNA reporter; test: apparent KD of K4 kissing-loop reporter; higher = weaker reporter binding; settings: Eterna round: R107; input ligand: arginine 13.2 mM
Method: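 RNA-MaP round R107: designed RNA switches with theophylline, tryptophan, arginine or FMN aptamers are transcribed on-chip within common flanks. They are titrated with a labelled K4 kissing-loop RNA reporter in RNA-MaP buffer (100 mM Tris pH 7.5, 80 mM KCl, 4 mM MgCl2), without ligand or with the indicated ligand. Median apparent KD per design.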
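Note: bound reporter read as fluorescence of individual clusters on recovered sequencing chips by microscopy, with normalized cluster intensities fitted with a binding model.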

Sequence | apparent KD of K4 kissing-loop reporter [µM]
UUUAUAAGGUCGGCCGCCACUGGAUUUAUGUUUGUUUCGUCUGGAUCAAAGUGAUGUUUUGAGUCCAGGACCGGGACAUUUGUUA [whbob_Ex_Tryp_B_w39] | 0.0765
CCGACUGCAGGAAGGAGCGGCGGUUGGAGUGAUGUUCCGGGUAGUGAUGUUACCAAACUCCGCCAGGUAGGUCGCCUGUUGCUCG [Same State Arginine B GF10] | 0.112
GAUUUAGAGGCGGCCGCCACUAGUGAUGUUAGUGAUGUUUGAUACUGAAUAUAUCGGCGUGUAGAUAGGACCGGGCCAGAUGGAG [zwqqmullin] | 0.179
GUUACGCAUGGAAGGAGCGCACUCCGGUUGAUCGACACAGUGAUGUUGUGGUUCAUUCGAAUGCAGGUAGGUCGCCAUGUGUAAC [Ex Arginine B K4 15] | 0.593
AAGCAGUCACUCAAAGCCAUCGAAGAUGGUCGAGGACCGGUACGGCCGCCACUCGGAGUGAUGUUCCGAAGACUGCAAAAUAAAA | 0.394
GGGUGGCAGGCGGCCGCCACUCUGAGGGUCCACAGUGAUGUUGUGGGCGCGUAAGCGUCUUCAUAGAGGACCGGGUUUGUUGUUC [Same State Tryptophan B GF 24] | 0.308
UAGUGAAUAGAAGGAUAUUGAUAUGAAAGAUGCAGUGAUGUUGCCCGUAGCAGUCAGUAAUACGUGCAAGAAGGUCUGUGCGCGA [theeternabot_exclusion_KL_FMN_B_3] | 0.0954
CCAUUCAUCAGAAGGAGCGUCAAGUGAUGCUAUCCAGUGAUGUUGGAUAGCACGGAACAGUGACAGGUAGGUCGCUGAUGAGAGC [Arg B SS t8] | 0.106
GCUAUGGUAGGAAGGAGCGCGGACGAUAUUUAUCGAGUGAUGUUCGAAUAAUUAAAUAAAACGCAGGUAGGUCGCCUACUAUAGC [Arginine B K4 27] | 0.113
UGUACCGAGACAGGAUAUGUCGUCGAAAGACGAAAUGGAGUGAUGUUCCUUAAACUGCGAAAGCAGACAGAAGGGUCUUGGUACU [FmnBS 29 A10+U76] | 0.172
UUUAUUAAGACGGCCGCCACUGAUUCAGAGUGAUGUUCUGAUAUUUUUUUAUAUAAUAAUAACAGCAGGACCGGGUCAAUUAUUA [JR_SSTryptoB_Sub013] | 0.237
GAGGCCAAACGGAGUGAUGUUUCGUAUGAUACCAGCAGCGAAAGCUGCCCUUGGCAGCAUGCCACGGCCUCGGCAGGAAACUGCC | 0.322
UACGCUGCCUGAGGAUAUAGAAACGAGUGAUGUUCGUGGAUAAGAGCCAGUGAUGUUGGGUUAUUUCUAGAAGGCAGGUAAAGUA [Exclusion FMN B GF6] | 0.0891
AACCGAGGUAAUCCACAAUGAUUAGAAGAUACCAGAUAUAUAAAUAUCCCUUGGCAGCUUUGAAUGAGUGAUGUUCAUUUGUCAU [KL-SSTheo-A11] | 0.207
GUGACACGUGAUGAUACCAGUCCACGGAAGUUCCUUAGUGAUGUUAACCUUGCUUUUUCUGACCCUUGGCAGCAUUAGUUGAGAA [theeternabot_sameState_KL_Theo_B_42] | 0.166
AGUAUUGAGUCGGCCGCCACUGGUUUAAUGAGUGUCAAUUCUGGAUCAAAGUGAUGUUUUGGAGCUAGGACCGGGACCAUUGUUA [#07 K4 Tryptophan B Exclusion] | 0.36
UUGGCCCGGCCGGAAGGCCGGGCCUGCGAGCGAGGACCGGUACGGCCGCCACUCGGCGCAGUGAUGUUGCGUGGCCGCAAGGCCG [#2 Exclusion - Tryptophan A Attempt #1 (HarryS)] | 0.337
AAGAGCUAGGCGGCCGCCACUAGUUGUGAACACAUACAAGCCAGUGAUGUUGGUAUGGUGGACGGUAGGACCGGGCCUAGCUGAA [Exclusion - Tryptophan B (Freestyle 16)] | 0.229
CAGAUCACAGAGUGAUGUUCUGUGUCCGAAGGAGCGCGCUUCGGCGCAGGUAGGUCGCGGAUACAGUUGACGUACCAUCUAGACA [Arg A Ex t3c] | 0.383
UCGACAGUGAACGAUACCAGCGUCACGUGGCUGGUGGUCACAUGAGUGAUGUUCAUGUAACGCCCUUGGCAGCGUGCACGUAUCA [KL-XTheo-B8] | 0.127
ACACUAUCGUCAUAGACGGUAGUGAAAAGUGAGGAUAUGAGUGAUGUUAGAAGGCACUAAGACUGUAUCGAAUAGAUACAGUCAA [FmnA 4 #K4BetweenAptamer #OpenEnded] | 0.262
GUCCACACUGCAGGAUAUGGAGGAAUAGCGAGGGAGUGUGGAAGCACACCUCUGGCAGUGAUGUUGCCAGAAGGGCGGUGCGGCG [Cemaorar] | 0.0755
AGGUCAGCAGGAAGGAGCGCCCUGACAGGUUGCUGCCGUGGGCAGUGAUGUUGCUCAGUCCGGCAGGUAGGUCGCCUGCUGACCU | 0.157
CGCCGUAAGGCGAGCGCUCCCACUCCGGAAGGAGCGCCCGGAAGGGCAGGUAGGUCGCCGGAGUGAUGUUCCGGUGGAGGGCUCG [#2 Exclusion - Arginine A Attempt #12 (Inspired by Omei)] | 0.144
AGUCCACUCUAAAGAGUGGACCUAAGGGAUACCAGUGAUGUUGGUCACCCUUGGCAGCCCACUGUCAUCGAUAAAGAUGGCAGGA | 0.112
AAAAUAAAGCAGUCAAUCGGAGUGAUGUUCCGAGGACCGGUACGGCCGCCACUCGAGAGUCCAAAGGACUCAUGGCGAGACUGCA [#SwitchBubble 17 #K4Early] | 0.0948
ACGAUUUACAGAAGGAGCGUGUAUUUAACUACAAUUAUCUUAGCGAGUGAUGUUCGUUUUACACAGGUAGGUCGCUGUAUAUCGA [JR_ExcArginiB_Sub011] | 0.303
